Target: S. aureus DNA gyrase fusion truncate GyrB27:A56 (GKdel) (Staphylococcus aureus) (UniProt P66937)
Test: crystal structure; 2.8 Å, space group P6_(1); microbatch under oil, 20 °C; complex with 20-447T DNA duplex, zoliflodacin and MnCl2; 90 mM Bis-Tris pH 6.3, 9% PEG 5 kMME

Substance: S. aureus DNA gyrase fusion truncate GyrB27:A56 (GKdel) (from UniProt P66937 409-644; Q99XG5 2-491) (enzyme)
- stoichiometry N: 2
